Experimental data as given in patent US20190194280A1.

Molecular target: Serum samples collected at week 16 from patients immunized with UBI AD vaccine (UB-311)
Assay: comp. ELISA, serum P104

Binder | IC50-based peak height
EISEVKMDAE [Aβ-7-3 or APP 770 (E665-E674)] | 0
EEISEVKMDA [Aβ-8-2 or APP 770 (E664-A673)] | 0
ISEVKMDAEF [Aβ-6-4 or APP 770 (I666-F675)] | 0

Continued, values first:

IC50-based peak height | Binder
0 | EVKMDAEFRH [Aβ-4-6 or APP 770 (E668-H677)]
0 | RHDSGYEVHH [Aβ5-14 or APP 770 (R676-H685)]

Molecular target: Serum samples collected at week 16 from patients immunized with UBI AD vaccine (UB-311)
Assay: comp. ELISA, serum P201

Binder | IC50-based peak height
EISEVKMDAE [Aβ-7-3 or APP 770 (E665-E674)] | 0
EEISEVKMDA [Aβ-8-2 or APP 770 (E664-A673)] | 0
ISEVKMDAEF [Aβ-6-4 or APP 770 (I666-F675)] | 0

The next lines start with the values.

IC50-based peak height | Binder
58 | EVKMDAEFRH [Aβ-4-6 or APP 770 (E668-H677)]
0 | RHDSGYEVHH [Aβ5-14 or APP 770 (R676-H685)]

Molecular target: Serum samples collected at week 16 from patients immunized with UBI AD vaccine (UB-311)
Assay: comp. ELISA, serum P105

Binder | IC50-based peak height
EISEVKMDAE [Aβ-7-3 or APP 770 (E665-E674)] | 0
EEISEVKMDA [Aβ-8-2 or APP 770 (E664-A673)] | 0
ISEVKMDAEF [Aβ-6-4 or APP 770 (I666-F675)] | 0

Second part, the binder after the results:

IC50-based peak height | Binder
0 | EVKMDAEFRH [Aβ-4-6 or APP 770 (E668-H677)]
0 | RHDSGYEVHH [Aβ5-14 or APP 770 (R676-H685)]

Molecular target: Serum samples collected at week 16 from patients immunized with UBI AD vaccine (UB-311)
Assay: comp. ELISA, serum P206

Binder | IC50-based peak height
EISEVKMDAE [Aβ-7-3 or APP 770 (E665-E674)] | 0
EEISEVKMDA [Aβ-8-2 or APP 770 (E664-A673)] | 0
ISEVKMDAEF [Aβ-6-4 or APP 770 (I666-F675)] | 0

More lines, now with the values ahead:

IC50-based peak height | Binder
0 | EVKMDAEFRH [Aβ-4-6 or APP 770 (E668-H677)]
0 | RHDSGYEVHH [Aβ5-14 or APP 770 (R676-H685)]

Molecular target: Serum samples collected at week 16 from patients immunized with UBI AD vaccine (UB-311)
Assay: comp. ELISA, serum P103

Binder | IC50-based peak height
EISEVKMDAE [Aβ-7-3 or APP 770 (E665-E674)] | 0
EEISEVKMDA [Aβ-8-2 or APP 770 (E664-A673)] | 0
ISEVKMDAEF [Aβ-6-4 or APP 770 (I666-F675)] | 0

Next, values leading:

IC50-based peak height | Binder
0 | EVKMDAEFRH [Aβ-4-6 or APP 770 (E668-H677)]
0 | RHDSGYEVHH [Aβ5-14 or APP 770 (R676-H685)]

Molecular target: Serum samples collected at week 16 from patients immunized with UBI AD vaccine (UB-311)
Assay: comp. ELISA, serum P102

Binder | IC50-based peak height
EISEVKMDAE [Aβ-7-3 or APP 770 (E665-E674)] | 0
EEISEVKMDA [Aβ-8-2 or APP 770 (E664-A673)] | 0
ISEVKMDAEF [Aβ-6-4 or APP 770 (I666-F675)] | 0

More lines, now with the values ahead:

IC50-based peak height | Binder
0 | EVKMDAEFRH [Aβ-4-6 or APP 770 (E668-H677)]
0 | RHDSGYEVHH [Aβ5-14 or APP 770 (R676-H685)]

Molecular target: Serum samples collected at week 16 from patients immunized with UBI AD vaccine (UB-311)
Assay: comp. ELISA, serum P210

Binder | IC50-based peak height
EISEVKMDAE [Aβ-7-3 or APP 770 (E665-E674)] | 0
EEISEVKMDA [Aβ-8-2 or APP 770 (E664-A673)] | 0
ISEVKMDAEF [Aβ-6-4 or APP 770 (I666-F675)] | 0

Continued, values first:

IC50-based peak height | Binder
0 | EVKMDAEFRH [Aβ-4-6 or APP 770 (E668-H677)]
0 | RHDSGYEVHH [Aβ5-14 or APP 770 (R676-H685)]

Molecular target: Serum samples collected at week 16 from patients immunized with UBI AD vaccine (UB-311)
Assay: comp. ELISA, serum P203

Binder | IC50-based peak height
EISEVKMDAE [Aβ-7-3 or APP 770 (E665-E674)] | 0
EEISEVKMDA [Aβ-8-2 or APP 770 (E664-A673)] | 0
ISEVKMDAEF [Aβ-6-4 or APP 770 (I666-F675)] | 0

Further lines, results first:

IC50-based peak height | Binder
0 | EVKMDAEFRH [Aβ-4-6 or APP 770 (E668-H677)]
0 | RHDSGYEVHH [Aβ5-14 or APP 770 (R676-H685)]

Molecular target: Serum samples collected at week 16 from patients immunized with UBI AD vaccine (UB-311)
Assay: comp. ELISA, serum P207

Binder | IC50-based peak height
EISEVKMDAE [Aβ-7-3 or APP 770 (E665-E674)] | 0
EEISEVKMDA [Aβ-8-2 or APP 770 (E664-A673)] | 0
ISEVKMDAEF [Aβ-6-4 or APP 770 (I666-F675)] | 0

Next, values leading:

IC50-based peak height | Binder
1 | EVKMDAEFRH [Aβ-4-6 or APP 770 (E668-H677)]
0 | RHDSGYEVHH [Aβ5-14 or APP 770 (R676-H685)]

Molecular target: Serum samples collected at week 16 from patients immunized with UBI AD vaccine (UB-311)
Assay: comp. ELISA, serum P108

Binder | IC50-based peak height
EISEVKMDAE [Aβ-7-3 or APP 770 (E665-E674)] | 0
EEISEVKMDA [Aβ-8-2 or APP 770 (E664-A673)] | 0
ISEVKMDAEF [Aβ-6-4 or APP 770 (I666-F675)] | 0

The next lines start with the values.

IC50-based peak height | Binder
0 | EVKMDAEFRH [Aβ-4-6 or APP 770 (E668-H677)]
0 | RHDSGYEVHH [Aβ5-14 or APP 770 (R676-H685)]

Molecular target: Serum samples collected at week 16 from patients immunized with UBI AD vaccine (UB-311)
Assay: comp. ELISA, serum P107

Binder | IC50-based peak height
EISEVKMDAE [Aβ-7-3 or APP 770 (E665-E674)] | 0
EEISEVKMDA [Aβ-8-2 or APP 770 (E664-A673)] | 0
ISEVKMDAEF [Aβ-6-4 or APP 770 (I666-F675)] | 0

The remaining lines, values ahead:

IC50-based peak height | Binder
0 | EVKMDAEFRH [Aβ-4-6 or APP 770 (E668-H677)]
0 | RHDSGYEVHH [Aβ5-14 or APP 770 (R676-H685)]

Molecular target: Serum samples collected at week 16 from patients immunized with UBI AD vaccine (UB-311)
Assay: comp. ELISA, serum P106

Binder | IC50-based peak height
EISEVKMDAE [Aβ-7-3 or APP 770 (E665-E674)] | 0
EEISEVKMDA [Aβ-8-2 or APP 770 (E664-A673)] | 0
ISEVKMDAEF [Aβ-6-4 or APP 770 (I666-F675)] | 0

The next lines start with the values.

IC50-based peak height | Binder
0 | EVKMDAEFRH [Aβ-4-6 or APP 770 (E668-H677)]
0 | RHDSGYEVHH [Aβ5-14 or APP 770 (R676-H685)]

Molecular target: Serum samples collected at week 16 from patients immunized with UBI AD vaccine (UB-311)
Assay: comp. ELISA, serum P209

Binder | IC50-based peak height
EISEVKMDAE [Aβ-7-3 or APP 770 (E665-E674)] | 0
EEISEVKMDA [Aβ-8-2 or APP 770 (E664-A673)] | 0
ISEVKMDAEF [Aβ-6-4 or APP 770 (I666-F675)] | 0

The remaining lines, values ahead:

IC50-based peak height | Binder
0 | EVKMDAEFRH [Aβ-4-6 or APP 770 (E668-H677)]
0 | RHDSGYEVHH [Aβ5-14 or APP 770 (R676-H685)]

Molecular target: Serum samples collected at week 16 from patients immunized with UBI AD vaccine (UB-311)
Assay: comp. ELISA, serum P101

Binder | IC50-based peak height
EISEVKMDAE [Aβ-7-3 or APP 770 (E665-E674)] | 0
EEISEVKMDA [Aβ-8-2 or APP 770 (E664-A673)] | 0
ISEVKMDAEF [Aβ-6-4 or APP 770 (I666-F675)] | 0

Second part, the binder after the results:

IC50-based peak height | Binder
1 | EVKMDAEFRH [Aβ-4-6 or APP 770 (E668-H677)]
0 | RHDSGYEVHH [Aβ5-14 or APP 770 (R676-H685)]

Molecular target: Serum samples collected at week 16 from patients immunized with UBI AD vaccine (UB-311)
Assay: comp. ELISA, serum P208

Binder | IC50-based peak height
EISEVKMDAE [Aβ-7-3 or APP 770 (E665-E674)] | 0
EEISEVKMDA [Aβ-8-2 or APP 770 (E664-A673)] | 0
ISEVKMDAEF [Aβ-6-4 or APP 770 (I666-F675)] | 0

Results, then the binder that gave them:

IC50-based peak height | Binder
0 | EVKMDAEFRH [Aβ-4-6 or APP 770 (E668-H677)]
0 | RHDSGYEVHH [Aβ5-14 or APP 770 (R676-H685)]

Molecular target: Serum samples collected at week 16 from patients immunized with UBI AD vaccine (UB-311)
Assay: comp. ELISA, serum P109

Binder | IC50-based peak height
EISEVKMDAE [Aβ-7-3 or APP 770 (E665-E674)] | 0
EEISEVKMDA [Aβ-8-2 or APP 770 (E664-A673)] | 0
ISEVKMDAEF [Aβ-6-4 or APP 770 (I666-F675)] | 0

More lines, now with the values ahead:

IC50-based peak height | Binder
0 | EVKMDAEFRH [Aβ-4-6 or APP 770 (E668-H677)]
0 | RHDSGYEVHH [Aβ5-14 or APP 770 (R676-H685)]

Molecular target: Serum samples collected at week 16 from patients immunized with UBI AD vaccine (UB-311)
Assay: comp. ELISA, serum P204

Binder | IC50-based peak height
EISEVKMDAE [Aβ-7-3 or APP 770 (E665-E674)] | 0
EEISEVKMDA [Aβ-8-2 or APP 770 (E664-A673)] | 0
ISEVKMDAEF [Aβ-6-4 or APP 770 (I666-F675)] | 0

The next lines start with the values.

IC50-based peak height | Binder
0 | EVKMDAEFRH [Aβ-4-6 or APP 770 (E668-H677)]
0 | RHDSGYEVHH [Aβ5-14 or APP 770 (R676-H685)]

Molecular target: Serum samples collected at week 16 from patients immunized with UBI AD vaccine (UB-311)
Assay: comp. ELISA, serum P205

Binder | IC50-based peak height
EISEVKMDAE [Aβ-7-3 or APP 770 (E665-E674)] | 0
EEISEVKMDA [Aβ-8-2 or APP 770 (E664-A673)] | 0
ISEVKMDAEF [Aβ-6-4 or APP 770 (I666-F675)] | 0

The remaining lines, values ahead:

IC50-based peak height | Binder
0 | EVKMDAEFRH [Aβ-4-6 or APP 770 (E668-H677)]
0 | RHDSGYEVHH [Aβ5-14 or APP 770 (R676-H685)]

Molecular target: Serum samples collected at week 16 from patients immunized with UBI AD vaccine (UB-311)
Assay: comp. ELISA, serum P202

Binder | IC50-based peak height
EISEVKMDAE [Aβ-7-3 or APP 770 (E665-E674)] | 0
EEISEVKMDA [Aβ-8-2 or APP 770 (E664-A673)] | 0
ISEVKMDAEF [Aβ-6-4 or APP 770 (I666-F675)] | 0

Further lines, results first:

IC50-based peak height | Binder
0 | EVKMDAEFRH [Aβ-4-6 or APP 770 (E668-H677)]
0 | RHDSGYEVHH [Aβ5-14 or APP 770 (R676-H685)]
